Measured values: article PMC12032424

What was measured:
[1] = target: TDP-43 NTD, 1-80 (UniProt Q13148); assay: BS3 crosslinking, SDS-PAGE; conditions: reference: unmodified TDP1-80; sites S48
[2] = target: TDP-43 NTD, 1-80 (UniProt Q13148); assay: size exclusion chromatography; conditions: reference: unmodified TDP1-80; sites S48
[3] = target: TDP-43 1-414 (UniProt Q13148); assay: sedimentation assay, supernatant by SDS-PAGE; conditions: reference: unmodified TDP1-414; sites S48

Substance	binding against the reference [1]	binding against the reference [2]	binding against the reference [3]
TDP-43 NTD, 1-80 (from UniProt Q13148) TDP1-80(pS48)	weaker	weaker	–
TDP-43 1-414 (from UniProt Q13148) TDP1-414(pS48)	–	–	weaker
